The results in this text go back to US20260337282 (published 2026).

Common to all, as to experiment: FACS
Test [1] addresses T1, mouse CCR8 (mouse).
T1 chain: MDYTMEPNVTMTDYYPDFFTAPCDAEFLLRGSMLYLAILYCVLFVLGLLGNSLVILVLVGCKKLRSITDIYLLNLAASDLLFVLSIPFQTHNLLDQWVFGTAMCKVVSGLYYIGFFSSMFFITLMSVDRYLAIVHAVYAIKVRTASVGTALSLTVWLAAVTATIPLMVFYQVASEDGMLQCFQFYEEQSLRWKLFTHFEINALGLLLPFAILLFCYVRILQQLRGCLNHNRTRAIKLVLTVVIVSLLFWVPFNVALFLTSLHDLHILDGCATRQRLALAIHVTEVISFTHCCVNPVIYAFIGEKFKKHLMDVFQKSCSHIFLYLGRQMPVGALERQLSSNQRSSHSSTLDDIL

For test [2], the target named is T2, human CCR4 (human).
T2 chain: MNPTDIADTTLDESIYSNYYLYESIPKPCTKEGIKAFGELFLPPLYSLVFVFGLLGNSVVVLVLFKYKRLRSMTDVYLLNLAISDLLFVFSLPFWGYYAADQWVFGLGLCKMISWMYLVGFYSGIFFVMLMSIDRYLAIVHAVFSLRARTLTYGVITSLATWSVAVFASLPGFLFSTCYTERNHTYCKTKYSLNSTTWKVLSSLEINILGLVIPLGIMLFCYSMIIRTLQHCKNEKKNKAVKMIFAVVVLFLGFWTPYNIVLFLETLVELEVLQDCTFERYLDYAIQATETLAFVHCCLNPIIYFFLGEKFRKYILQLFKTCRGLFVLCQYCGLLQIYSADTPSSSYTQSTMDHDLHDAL

The target of test [3] is T3, human CX3CR1 (human).
T3 chain: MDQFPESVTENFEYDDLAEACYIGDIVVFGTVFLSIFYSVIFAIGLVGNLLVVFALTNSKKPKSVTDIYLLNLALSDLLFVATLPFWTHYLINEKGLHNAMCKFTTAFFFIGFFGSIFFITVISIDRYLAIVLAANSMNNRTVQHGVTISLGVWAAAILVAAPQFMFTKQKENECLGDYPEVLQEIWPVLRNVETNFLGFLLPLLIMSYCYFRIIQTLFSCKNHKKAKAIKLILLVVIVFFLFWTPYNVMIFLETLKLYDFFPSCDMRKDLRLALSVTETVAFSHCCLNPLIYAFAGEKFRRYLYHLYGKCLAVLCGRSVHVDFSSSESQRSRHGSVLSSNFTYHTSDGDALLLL

Test [4] concerns the target human CCR8 (human).
The target in test [5] is T1, mouse CCR8.
The target in test [6] is human CCR8 (human). This is another data set of the same source.
Test [7] has as its target human CCR5 (human).
In test [8] the target is T4, cynomolgus CCR8 (cynomolgus).
T4 chain: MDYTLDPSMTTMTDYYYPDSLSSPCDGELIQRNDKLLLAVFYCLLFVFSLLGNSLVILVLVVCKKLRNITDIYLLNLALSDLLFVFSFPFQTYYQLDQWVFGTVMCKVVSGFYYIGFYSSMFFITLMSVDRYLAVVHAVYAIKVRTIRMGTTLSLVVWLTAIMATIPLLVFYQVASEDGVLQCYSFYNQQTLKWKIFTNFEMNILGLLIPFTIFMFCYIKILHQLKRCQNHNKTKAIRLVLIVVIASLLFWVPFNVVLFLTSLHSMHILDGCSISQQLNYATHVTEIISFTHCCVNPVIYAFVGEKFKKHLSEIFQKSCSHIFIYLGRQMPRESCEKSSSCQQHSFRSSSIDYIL

The target of test [9] is human CCR8 (human). This is another data set of the same source.
For test [10], the target named is T5, human CCR2 (human).
T5 chain: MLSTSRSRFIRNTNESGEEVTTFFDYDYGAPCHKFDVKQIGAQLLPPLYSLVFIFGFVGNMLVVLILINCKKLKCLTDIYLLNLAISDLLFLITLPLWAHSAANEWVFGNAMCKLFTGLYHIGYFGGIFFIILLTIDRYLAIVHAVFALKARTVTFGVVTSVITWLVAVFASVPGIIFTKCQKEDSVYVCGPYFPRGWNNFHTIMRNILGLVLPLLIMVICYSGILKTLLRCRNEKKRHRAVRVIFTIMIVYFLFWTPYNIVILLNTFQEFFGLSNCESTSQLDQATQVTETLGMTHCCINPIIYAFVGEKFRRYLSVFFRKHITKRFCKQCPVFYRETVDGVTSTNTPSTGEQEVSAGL

Test [11] concerns the target human CCR8 (human). The source holds these as a separate data set.
Test [12] deals with T1, mouse CCR8.
For test [13], the target named is T4, cynomolgus CCR8.
Test [14] concerns the target T1, mouse CCR8.
The target in test [15] is human CCR8 (human). The source holds these as a separate data set.

Where two headings read alike, the source gives them in different places.

human CCR8 (human), sequence (chain, as listed by the source): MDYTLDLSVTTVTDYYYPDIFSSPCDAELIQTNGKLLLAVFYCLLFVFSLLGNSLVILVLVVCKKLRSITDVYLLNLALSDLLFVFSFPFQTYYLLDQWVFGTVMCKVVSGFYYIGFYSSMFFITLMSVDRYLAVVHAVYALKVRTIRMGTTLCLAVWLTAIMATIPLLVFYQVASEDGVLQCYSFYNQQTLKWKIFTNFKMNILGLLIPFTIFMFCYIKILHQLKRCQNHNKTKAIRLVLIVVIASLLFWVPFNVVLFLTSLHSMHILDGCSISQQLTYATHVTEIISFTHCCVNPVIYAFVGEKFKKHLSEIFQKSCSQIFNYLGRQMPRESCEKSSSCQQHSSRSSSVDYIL
human CCR5 (human), sequence (O14692 whole entry): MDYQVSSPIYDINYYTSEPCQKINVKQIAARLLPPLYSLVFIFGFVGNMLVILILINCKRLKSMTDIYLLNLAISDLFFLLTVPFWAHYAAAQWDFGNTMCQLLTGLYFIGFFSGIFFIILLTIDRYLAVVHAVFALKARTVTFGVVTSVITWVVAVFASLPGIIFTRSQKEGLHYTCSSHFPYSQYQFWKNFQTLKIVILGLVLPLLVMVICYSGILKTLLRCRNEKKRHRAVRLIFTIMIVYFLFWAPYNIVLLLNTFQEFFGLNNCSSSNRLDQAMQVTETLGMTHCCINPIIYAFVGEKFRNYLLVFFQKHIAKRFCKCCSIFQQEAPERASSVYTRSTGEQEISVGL

B1: 11F8 (antibody, V domains shown)
VH: QVQLVESGGGVVQPGRSLRLSCAASGFTFSTYVMHWVRQAPGKGLEWVAVISYDGNNKYYADSVKGRFIISRDNSKNTLFLQMNSLRGEDTAVYYCARGRSYVNYYGLDVWGQGTTVTVSS
VL: DIVMTQTPLSLSVTPGQPASISCKSSQSLLYSDGKTYLYWYLQKPGQPPHLLIYEVSNRFSGVPKRFSGSGSGTDFTLKISRVEAEDVGVYYCMQSVKIPLTFGGGTKVEIK
With B1, the EC50 stood at 0.127 µg/mL in test [1]; 0.0814 µg/mL in [4]; 0.127 µg/mL in test [5]; 0.104 µg/mL in test [6]; 0.71 µg/mL in [8]; 0.104 µg/mL in [9]. Also, the binding result in [2], in test [3], in test [7] and in test [10] was “no binding” in each case.

B2: 11B12 (antibody, V domains shown)
VH: QVQLVESGGGVVQPGRSLRLSCAASGFSFSSYVMHWVRQAPGKGLEWVAVISYDGSDKYYADSVKGRFTISRDNSKNTLFLQMNSLRPEDTAVYYCARGRGYRYGQSYYYGMDVWGQGTTVTVSS
VL: DIVMTQTPLSLSVTPGQPASISCKSSQSLLYSDGKTYLYWYLQKPGQPPQILIFEVSNRFSGVPDRFSGSGSGTDFTLKISRVEAEDVGVYYCMQSIKLPLTFGGGTKVEIK
In the case of B2, the EC50 was 0.177 µg/mL in [1]; 0.21 µg/mL in [4]; 0.177 µg/mL in [5]; 0.194 µg/mL in [6]; 0.103 µg/mL in [8]; 0.194 µg/mL in test [9]. Moreover, the binding result in test [2], in test [3], in test [7] and in test [10] was “no binding” each time.

B3: 11F5 (antibody, V domains shown)
VH: EVQLVESGGGVVQPGRSLRLSCAASGFTFSSYVVHWVRQAPGKGLEWVAVISYDGDNKFYADSVKGRFTISRDNSKNTLYLQMNSLRTEDTAVYYCARGRNYYYYYGLDVWGQGTTVTVSS
VL: DIVMTQTPLSLSVTPGQPASISCKSSQSLLYSDGKTYLYWYLQKAGQPPQLLIYEVSNRFSGVPDRFSGSGSGTDFTLKISRVEAEDVGVFYCMQSLKVPPTFGQGTKVDIK
In the case of B3, the EC50 in [1] was 0.4 µg/mL; in test [4] it was 0.285 µg/mL; in test [5], 0.4 µg/mL; in test [6] it was 0.287 µg/mL; in [11], 0.207 µg/mL; in test [12], 0.168 µg/mL. Further, the EC50 was greater than 2 µg/mL in test [8] and 0.287 µg/mL in test [9]. The binding result in test [2], in test [3], in test [7] and in test [10] was “no binding” throughout.

B4: 7B16 analog (antibody, V domains shown)
VH: EVQLVESGGGLVQPGGSLKLSCAASGFTFNTYAMNWVRQASGKGLEWVGRIRSKSNNYATYYADSVKDRFTISRDDSKNTAYLQMNSLKTEDTAVYYCVRGLLRYRFFDVWGQGTTVTVSS
VL: DIVMTQSPLSLPVTPGEPASISCRSSKSLLHSNGNTYLYWFLQKPGQSPQLLIYRMSNLASGVPDRFSGSGSGTDFTLKISRVEAEDVGVYYCMQHLEYPFTFGGGTKVEIK
Regarding B4, the binding result in test [13] and in test [14] was “no binding” in each case. In addition, the figures for the EC50 in [5] and in test [9] were greater than 10 µg/mL and 0.039 µg/mL, respectively.

B5: Mogamulizumab analog-SI (antibody, V domains shown)
VH: EVQLVESGGDLVQPGRSLRLSCAASGFIFSNYGMSWVRQAPGKGLEWVATISSASTYSYYPDSVKGRFTISRDNAKNSLYLQMNSLRVEDTALYYCGRHSDGNFAFGYWGQGTLVTVSS
VL: DVLMTQSPLSLPVTPGEPASISCRSSRNIVHINGDTYLEWYLQKPGQSPQLLIYKVSNRFSGVPDRFSGSGSGTDFTLKISRVEAEDVGVYYCFQGSLLPWTFGQGTKVEIK
As for B5, the binding result in test [15], in test [3], in [7] and in test [10] was “no binding” throughout.

B6: 10A11 analog (antibody, V domains shown)
VH: EVQLVESGGALVKPGGSLRLSCAASGFTFSTYALYWVRQAPGKGLEWVGRIRSKSNNYATYYADSVKDRFTISRDDSKNTLYLQMNSLKTEDTAVYYCTRARFYYSDYGYAMDYWGQGTLVTVSS
VL: DIVMTQSPDSLAVSLGERATINCRSSKSLLHSNRNTYLYWYQQKPGQPPKLLIYRMSQLASGVPDRFSGSGSGTDFTLTISSLQAEDVAVYYCMQHLEYPLTFGQGTKLEIKR
On to B6, for which the values for the EC50 in test [5] and in [9] were greater than 10 µg/mL and 0.058 µg/mL, respectively. In addition, the binding result in [14] is recorded as “no binding”.
